US9605038B2, “Fusion peptide comprising dhFas-1 domain and MMP substrate and use thereof for preventing and treating rheumatoid arthritis” (Kyungpook National University Industry-Academic Cooperation …, priority 2010, dated 2017)
Entries after “also recorded” stand apart in the source; their conditions may differ.

How the values were obtained:
NIH3T3 = experiment: βig-h3-mediated cell migration test (transwell), NIH3T3; format: cell-based, mouse; conditions: 7 hours
Experimental: In the lower compartment of a transwell filter having an 8 um hole size allowing cells to be migrated, βig-h3 was cultured at 4° C. for 12 to 14 hours and coated. In DMEM+0.5% BSA culture medium, NIH3T3 was introduced, and administered with MFK23, MFK24 or MFK25 at concentrations, followed by mixing. The resultant mixture was cultured at 37° C. for 30 minutes, inoculated into the upper chamber of the coated well, and cultured for 7 hours at 37° C. Then, the cells migrated to the lower compartment of the filter were fixed by paraformaldehyde, and strained by a crystal violet. The cells […] remaining in the upper chamber were wiped out and the number of cells migrated to the lower compartment was microscopically counted.

MMP2 = target: T1, MMP2 (Homo sapiens, UniProt P08253); experiment: Enzymatic digestion test, MMP2; format: biochemical; conditions: 3 ug peptide, MMP2 100, 200, 800 ng, 37° C. 4 hours
T1 sequence (P08253 110-660): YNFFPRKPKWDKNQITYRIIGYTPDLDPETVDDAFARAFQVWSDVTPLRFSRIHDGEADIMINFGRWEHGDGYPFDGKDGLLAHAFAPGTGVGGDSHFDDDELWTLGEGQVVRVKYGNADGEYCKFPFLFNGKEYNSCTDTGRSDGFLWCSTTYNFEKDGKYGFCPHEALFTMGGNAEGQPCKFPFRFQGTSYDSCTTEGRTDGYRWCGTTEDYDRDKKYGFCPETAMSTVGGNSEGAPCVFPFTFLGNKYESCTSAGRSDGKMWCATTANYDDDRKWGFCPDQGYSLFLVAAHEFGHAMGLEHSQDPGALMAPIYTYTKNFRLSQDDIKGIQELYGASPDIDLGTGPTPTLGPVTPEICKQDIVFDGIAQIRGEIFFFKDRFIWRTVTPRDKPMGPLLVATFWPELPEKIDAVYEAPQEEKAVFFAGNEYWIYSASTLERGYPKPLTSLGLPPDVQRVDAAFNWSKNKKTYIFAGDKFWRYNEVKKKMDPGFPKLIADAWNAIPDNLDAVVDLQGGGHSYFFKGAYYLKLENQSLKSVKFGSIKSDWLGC
Experimental: (§1) 3 ug of synthesized mdhFas-1-MMPsubstrate structure modified protein, together with MMP1 (5 ng, 10 ng and 50 ng), MMP2 (100 ng, 200 ng and 800 ng), MMP3 (10 ng, 50 ng and 100 ng), cathepsin D (5 ng, 10 ng and 50 ng), cathepsin L (100 ng, 200 ng and 800 ng), and cathepsin K (10 ng, 50 ng and 100 ng), was mixed with enzyme buffer (150 mM NaCl, 5 mM. CaCl2, 20 mM Tris-HCl pH7.5), and reacted at 37° C. for 4 hours. The resultant product was subjected to electrophoresis through 15% polyacrylamide gel, transferred to a Nitrocellulose Membrane (Schleicher & Schuell), blocked at room temperature for 1 hour with TBST solution containing 3% BSA (20 mmole/L Tris-HCl, 137 mmole//l NaCl, 0.1% Tween-20), washed TBST solution three times (each for 10 minutes), and reacted with primary antibody (anti-Histidine or anti-Bigh3) for 1 hour. The resultant product was washed with TBST solution three times (each for 10 minutes), reacted with a secondary antibody conjugated to horseradish peroxidase (HRP) for 1 hour, washed TBST solution three times (each for 10 minutes), and visualized by ECL (Amersham Biosciences, UK) so as to detect the change in the amount of mdhFas-1-MMPsubstrate-RGD structural peptide.

MMP3 = MMP3 (Homo sapiens, UniProt P08254); experiment: Enzymatic digestion test, MMP3; format: biochemical; conditions: 3 ug peptide, MMP3 10, 50, 100 ng, 37° C. 4 hours
Experimental: as §1

[1] = test system: collagen-induced arthritis (CIA) mouse model; experiment: Arthritis therapeutic effect in CIA mouse (clinical arthritis index); format: in vivo
Experimental: A CIA mouse model having the similar characteristic to that of human rheumatoid arthritis was prepared according to the description in a known literature (Protocol for the successful induction of collagen-induced arthritis (CIA) and collagen antibody-induced arthritis (CAIA) in mice. Chondrex, Redmond, Wash.): Bovine type 2 collagen 100 ug was mixed with Freund's complete adjuvant, and hypodermically inoculated into the tail of the mouse. After 3 weeks, bovine type 2 collagen 100 ug was mixed with Freund's incomplete adjuvant, and inoculated again into the tail of the mouse. Then, the mouse was used in the experiment.
In order to find out the therapeutic effect of arthritis in a CIA model, for four weeks from the onset (the 23rd day) of arthritis following the second injection of the bovine type 2 collagen, MFK23 or MFK24 was daily injected into the abdominal cavity in doses of 0.1 mg/kg, 1 mg/kg, 10 mg/kg and 30 mg/kg. As a control group, the same amount of PBS was injected into the abdominal cavity. From the 23rd day to the 50th day, by using a Clinical arthritis index, the severity of arthritis was daily determined. The determination was based on the following data.
0; no symptom, 1; edema in one articulation or light edema, 2; severe edema in 2 or more articulations, 3; severe edema in most articulations, 4; severe edema in the whole of legs.

[2] = test system: foot tissue of CIA mouse (Synovial membrane, cartilage, bones; CD31, ICAM-1); experiment: Histologic and immunohistochemistry test on foot tissue of CIA mouse; format: in vivo; conditions: CIA mouse foot tissue, 50th day, FIGS. 18 and 20
Experimental: In order to determine the action mechanism of an arthritis therapeutic effect in a CIA model, on the 50th day following the second injection of the bovine type 2 collagen (after 4 weeks from the onset (the 23rd day) of arthritis following the second injection of the bovine type 2 collagen), foot tissues of treatment groups were separated and subjected to histologic analysis. Then, in the tissues, a change in the expression of inflammatory mediators was examined.
A tissue sample was prepared by the following process. Skin on the foot tissue was removed. Then, the tissue was fixed in 10% formalin solution for 2 days, and demineralized in 10% EDTA solution. The demineralized tissue was subjected to a dehydrating process and a clearing process, paraffin-embedded, and was made into a fragment with a thickness of 3 um by a microtome. The tissue fragment was deparaffinized and re-dehydrated by 100% xylene and ethanol, and then non-specific peroxidase within the tissue was blocked by a solution of 0.3% hydrogen peroxide dissolved in 100% methanol.
In order to carry out an immunohistochemistry test, binding of non-specific protein was blocked by 5% BSA. Then, the tissue was cultured, together with each primary antibody (as endothelial cell markers, an antibody to CD31, and an antibody to ICAM-1 (intercellular adhesion molecule-1)), at 4° C. for 12 to 14 hours, and washed with washing buffer (0.1% BSA, 0.2% gelatin, 0.05% saponin). It was cultured together with a secondary antibody labeled with biotin at room temperature for 30 minutes, was washed, reacted with Vectastatin ABC kit (Vector Laboratories, U.S.), and was mounted with Eukitt mounting media (Fluka, Germany) for observation.

ICAM-1 and RANKL = experiment: Immunoblot of ICAM-1 and RANKL in CIA mouse model; format: in vivo

Sequence of MMP3 (P08254 100-477, species assumed): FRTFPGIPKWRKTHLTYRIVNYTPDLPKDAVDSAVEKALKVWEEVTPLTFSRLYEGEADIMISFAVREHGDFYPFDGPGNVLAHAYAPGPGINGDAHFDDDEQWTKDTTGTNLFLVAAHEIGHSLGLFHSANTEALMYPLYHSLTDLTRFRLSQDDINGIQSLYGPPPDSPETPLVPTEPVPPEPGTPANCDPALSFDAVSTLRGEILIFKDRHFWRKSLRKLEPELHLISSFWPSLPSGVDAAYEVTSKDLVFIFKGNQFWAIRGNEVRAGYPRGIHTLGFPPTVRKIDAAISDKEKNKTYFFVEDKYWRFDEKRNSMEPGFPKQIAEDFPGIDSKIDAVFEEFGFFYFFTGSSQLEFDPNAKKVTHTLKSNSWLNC

B1: MFK23: fusion peptide having sequential links of mdhFas-1, MMP2 substrate GPLGVRG (SEQ ID NO: 5), and QERGDSLA (SEQ ID NO: 10) (protein)
chain: QAMPPEELNKLLANAKELTNILKYHIGDEILVSGGIGALVRLKSLQGDKLEVSSKNNVVSVNKEPVAETDIMEFGPLGVRGVDGQERGDSLAGLE
modifications: MFK23
B1 was tested, and the βig-h3-mediated cell migration (NIH3T3) was “inhibited the cell migration; also recorded: concentration-dependently inhibited”, the “cleavage through treatment with MMP-2” value (MMP2) was “concentration-dependently cleaved” and the “cleavage through treatment with MMP-3” value (MMP3) was “not cleaved”. For the same molecule, the “arthritis inhibiting effect (clinical arthritis index), in words” value ([1]; daily into the abdominal cavity) was “excellent effect on arthritis”, the “deformation of cartilage and bones (HE stain)” value [2] was “reduced the deformation of cartilage and bones” and the “proliferation of a Synovial membrane cell (HE stain)” value [2] was “inhibited the proliferation of a Synovial membrane cell”.

B2: MFK24: fusion peptide having sequential links of mdhFas-1, MMP1 substrate GPQGIAG (SEQ ID NO: 6), and QERGDSLA (SEQ ID NO: 10) (protein)
chain: QAMPPEELNKLLANAKELTNILKYHIGDEILVSGGIGALVRLKSLQGDKLEVSSKNNVVSVNKEPVAETDIMEFGPQGIAGVDGQERGDSLAGLE
modifications: MFK24
With B2 the βig-h3-mediated cell migration (NIH3T3) was “inhibited the cell migration; also recorded: concentration-dependently inhibited”, the “cleavage through treatment with MMP-2” value (MMP2) was “not cleaved” and the “cleavage through treatment with MMP-3” value (MMP3) was “not cleaved”. The “concentration relative to conventional mdhFas-1 or MFK12 that shows a higher arthritis inhibiting effect” value [1] was 1/100, the “arthritis inhibition (clinical arthritis index)” value ([1]; 0.1 mg/kg daily into the abdominal cavity, four weeks) was “about 70%” and the “deformation of cartilage and bones (HE stain)” value [2] was “reduced the deformation of cartilage and bones”. The “proliferation of a Synovial membrane cell (HE stain)” value [2] was “inhibited the proliferation of a Synovial membrane cell”, the “efficacy on ICAM-1 and RANKL expression at low dose” value (ICAM-1 and RANKL; 0.1 mg/kg) was “the high efficacy was maintained” and the “expression of ICAM-1 and RANKL in the inflammatory region” value (ICAM-1 and RANKL; according to doses, FIG. 22) was “reduced”.
